{"source": "paper PMC9775280", "about": "“A Simple Label-Free Aptamer-Based Electrochemical Biosensor for the Sensitive Detection of C-Reactive Proteins”", "binders": {"B1": {"name": "CRP aptamer (ssDNA)", "DNA": "GCCTGTAAGGTGGTCGGTGTGGCGAGTGTGTTAGGAGAGATTGC", "modifications": "5'-NH2"}}, "key": {"[1]": {"target": "T1, C-reactive protein (CRP) (UniProt P02741 19-224)", "T1 sequence": "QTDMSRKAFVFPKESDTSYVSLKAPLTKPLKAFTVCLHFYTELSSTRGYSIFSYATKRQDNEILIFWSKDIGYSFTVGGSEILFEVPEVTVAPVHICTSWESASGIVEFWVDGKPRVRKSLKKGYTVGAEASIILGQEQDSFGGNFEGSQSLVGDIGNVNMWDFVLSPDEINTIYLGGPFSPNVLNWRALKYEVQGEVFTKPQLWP", "experiment": "electrochemical aptasensor (DPV); 1 ng/mL CRP; aptamer immobilized on SPE/AuNPs/GO-COOH, BSA-blocked; linear range 0.001-100 ng/mL, LOD 2.941e-4 ng/mL; PBS as solvent, 100 uL sample; DPV -0.6 to 0 V, peak about -0.4 V; BSA-blocked electrode; pH, salt and assay temperature not stated", "conditions": "protein: commercial; chain copies: 5"}, "[2]": {"target": "B-type brain natriuretic peptide (BNP) (UniProt P16860 103-134)", "sequence (P16860 103-134)": "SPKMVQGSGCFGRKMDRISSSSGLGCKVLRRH", "experiment": "electrochemical aptasensor (DPV); 1 ng/mL; current below blank, attributed to physical adsorption; PBS as solvent, 100 uL sample; DPV -0.6 to 0 V, peak about -0.4 V; BSA-blocked electrode; pH, salt and assay temperature not stated", "conditions": "protein: commercial"}, "[3]": {"target": "PSA (PSA standard) (UniProt P07288 25-261)", "sequence (P07288 25-261)": "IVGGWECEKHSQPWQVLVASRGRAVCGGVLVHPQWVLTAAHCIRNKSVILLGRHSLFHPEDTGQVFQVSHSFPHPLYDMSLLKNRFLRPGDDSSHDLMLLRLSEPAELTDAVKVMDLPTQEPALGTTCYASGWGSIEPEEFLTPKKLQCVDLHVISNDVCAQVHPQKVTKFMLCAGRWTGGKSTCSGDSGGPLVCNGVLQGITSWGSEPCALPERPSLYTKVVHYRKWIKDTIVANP", "experiment": "electrochemical aptasensor (DPV); 1 ng/mL; current below blank, attributed to physical adsorption; PBS as solvent, 100 uL sample; DPV -0.6 to 0 V, peak about -0.4 V; BSA-blocked electrode; pH, salt and assay temperature not stated", "conditions": "protein: commercial"}}}
{"binder": "B1", "values": [{"measurement": "binding result", "setting": "[1]", "result": "binds"}, {"measurement": "binding result", "setting": "[2]", "result": "no binding"}, {"measurement": "binding result", "setting": "[3]", "result": "no binding"}]}
